From the supplement of paper PMC9112550, “Optimization of the antimicrobial peptide Bac7 by deep mutational scanning” (BMC Biology, 2022)

Each sequence was assayed on Escherichia coli TOP10 (assay: shrunken log2 fold change of peptide-encoding DNA abundance (4.5 h post-induction vs induction); higher = less antimicrobial activity (less host growth inhibition)). Settings: time post-induction: 4.5 h; library: site-saturation at positions 5, 18, 19, 20.
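Also: peptides expressed intracellularly from a pBAD plasmid library in pooled LB shake-flask culture, induced with 0.3% L-arabinose, DNA abundance read by NGS, three biological replicates, DESeq2 with apeglm shrinkage.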

Sequence	shrunken log2 fold change
RRIRHRPPRLPRPRPRPFWQPRP	0.0187
RRIRWRPPRLPRPRPRPRLWPRP	0.414
RRIRQRPPRLPRPRPRPPTKPRP	0.209
RRIRARPPRLPRPRPRPWIVPRP	-0.0598
RRIRKRPPRLPRPRPRPCLKPRP	-0.0379
RRIRFRPPRLPRPRPRPDRAPRP	0.131
RRIRRRPPRLPRPRPRPFIYPRP	-0.194
RRIRRRPPRLPRPRPRPVWTPRP	0.436
RRIRARPPRLPRPRPRPAFRPRP	0.355
RRIRMRPPRLPRPRPRPWYYPRP	-0.0257
RRIRKRPPRLPRPRPRPASGPRP	0.591
RRIRFRPPRLPRPRPRPVYYPRP	-1.27
RRIRDRPPRLPRPRPRPYPYPRP	-0.0176
RRIRLRPPRLPRPRPRPTHIPRP	-0.148
RRIRARPPRLPRPRPRPESCPRP	0.869
RRIRFRPPRLPRPRPRPCMRPRP	0.0466
RRIRIRPPRLPRPRPRPLENPRP	-0.309
RRIRVRPPRLPRPRPRPCVFPRP	-0.00495
RRIRGRPPRLPRPRPRPITNPRP	0.201
RRIRARPPRLPRPRPRPTMMPRP	0.496
RRIRDRPPRLPRPRPRPEKLPRP	0.19
RRIRMRPPRLPRPRPRPPNGPRP	0.234
RRIRWRPPRLPRPRPRPWNVPRP	0.0207
RRIRHRPPRLPRPRPRPYYRPRP	-0.0075
RRIRIRPPRLPRPRPRPYLPPRP	-0.206

Sequence	shrunken log2 fold change
RRIRWRPPRLPRPRPRPENAPRP	0.275
RRIRIRPPRLPRPRPRPGFLPRP	-0.328
RRIRMRPPRLPRPRPRPDFDPRP	0.15
RRIRFRPPRLPRPRPRPQYNPRP	-1.05
RRIRMRPPRLPRPRPRPINWPRP	-0.011
RRIRNRPPRLPRPRPRPFWAPRP	0.0267
RRIRPRPPRLPRPRPRPRYVPRP	-0.24
RRIRWRPPRLPRPRPRPEPWPRP	0.725
RRIRWRPPRLPRPRPRPICQPRP	-0.146
RRIRHRPPRLPRPRPRPCWLPRP	-0.0661
RRIRPRPPRLPRPRPRPPTSPRP	0.276
RRIRGRPPRLPRPRPRPGMGPRP	0.963
RRIRPRPPRLPRPRPRPKEAPRP	-0.0122
RRIRNRPPRLPRPRPRPSTSPRP	-0.36
RRIRLRPPRLPRPRPRPSCKPRP	0.0208
RRIRLRPPRLPRPRPRPYWFPRP	-0.758
RRIRHRPPRLPRPRPRPYMLPRP	-1.66
RRIRHRPPRLPRPRPRPDFTPRP	-0.0849
RRIRWRPPRLPRPRPRPSKQPRP	0.143
RRIRNRPPRLPRPRPRPSSDPRP	-0.171
RRIRGRPPRLPRPRPRPSKDPRP	0.0908
RRIRNRPPRLPRPRPRPGPIPRP	0.058
RRIRLRPPRLPRPRPRPYGRPRP	-0.2
RRIRTRPPRLPRPRPRPTIAPRP	-0.372
RRIRKRPPRLPRPRPRPPDIPRP	0.609

Sequence	shrunken log2 fold change
RRIRCRPPRLPRPRPRPYYCPRP	-1.03
RRIRSRPPRLPRPRPRPCAVPRP	-0.255
RRIRSRPPRLPRPRPRPVHVPRP	-0.0394
RRIRLRPPRLPRPRPRPQNSPRP	-0.767
RRIRHRPPRLPRPRPRPEMLPRP	-0.32
RRIRYRPPRLPRPRPRPWCVPRP	-0.55
RRIRIRPPRLPRPRPRPWMSPRP	-0.266
RRIRFRPPRLPRPRPRPYVVPRP	-0.252
RRIRGRPPRLPRPRPRPFRAPRP	0.209
RRIRVRPPRLPRPRPRPHQQPRP	-0.0863
RRIRLRPPRLPRPRPRPNNKPRP	-0.357
RRIRKRPPRLPRPRPRPWNNPRP	0.0165
RRIRNRPPRLPRPRPRPFLKPRP	-0.294
RRIRWRPPRLPRPRPRPQVFPRP	-0.0323
RRIRLRPPRLPRPRPRPHAEPRP	-0.203
RRIRFRPPRLPRPRPRPNLKPRP	-0.553
RRIRQRPPRLPRPRPRPNLAPRP	0.281
RRIRTRPPRLPRPRPRPWWNPRP	-0.233
RRIRVRPPRLPRPRPRPVFRPRP	0.189
RRIRARPPRLPRPRPRPCYQPRP	-0.232
RRIRVRPPRLPRPRPRPTFHPRP	0.0139
RRIRGRPPRLPRPRPRPACHPRP	0.889
RRIRKRPPRLPRPRPRPWIFPRP	0.287
RRIRLRPPRLPRPRPRPQDMPRP	-0.169
RRIRGRPPRLPRPRPRPWLRPRP	0.306

Sequence	shrunken log2 fold change
RRIRMRPPRLPRPRPRPFEIPRP	0.0739
RRIRTRPPRLPRPRPRPVVYPRP	-0.418
RRIRPRPPRLPRPRPRPFCLPRP	-0.0969
RRIRGRPPRLPRPRPRPQCHPRP	0.48
RRIRRRPPRLPRPRPRPNEAPRP	0.271
RRIRYRPPRLPRPRPRPMVTPRP	0.0309
RRIRMRPPRLPRPRPRPWRLPRP	-0.0743
RRIRSRPPRLPRPRPRPRIPPRP	-0.179
RRIRARPPRLPRPRPRPSCEPRP	0.128
RRIRKRPPRLPRPRPRPRTWPRP	0.124
RRIRPRPPRLPRPRPRPPWAPRP	1.32
RRIRVRPPRLPRPRPRPPQAPRP	0.0808
RRIRQRPPRLPRPRPRPMMFPRP	-0.3
RRIRTRPPRLPRPRPRPGWKPRP	0.262
RRIRHRPPRLPRPRPRPWVEPRP	-0.0959
RRIRDRPPRLPRPRPRPMMVPRP	0.0541
RRIRNRPPRLPRPRPRPRPQPRP	0.339
RRIRPRPPRLPRPRPRPIKKPRP	-0.00206
RRIRLRPPRLPRPRPRPYWEPRP	-0.0613
RRIRFRPPRLPRPRPRPPFKPRP	-0.183
RRIRERPPRLPRPRPRPGRTPRP	0.251
RRIRQRPPRLPRPRPRPSVWPRP	0.128
RRIRSRPPRLPRPRPRPNWFPRP	-0.0702
RRIRLRPPRLPRPRPRPVGFPRP	0.212
RRIRDRPPRLPRPRPRPWCTPRP	0.107

Sequence	shrunken log2 fold change
RRIRPRPPRLPRPRPRPLGHPRP	0.163
RRIRFRPPRLPRPRPRPFLGPRP	0.0749
RRIRARPPRLPRPRPRPDYGPRP	-0.679
RRIRSRPPRLPRPRPRPKTLPRP	2.07
RRIRNRPPRLPRPRPRPDPHPRP	-0.263
RRIRKRPPRLPRPRPRPEKPPRP	0.0899
RRIRGRPPRLPRPRPRPTQHPRP	0.855
RRIRTRPPRLPRPRPRPRKVPRP	-0.295
RRIRVRPPRLPRPRPRPHSKPRP	-0.496
RRIRIRPPRLPRPRPRPKIEPRP	-0.0307
RRIRERPPRLPRPRPRPEHPPRP	-0.0878
RRIRCRPPRLPRPRPRPRNHPRP	-0.0709
RRIRVRPPRLPRPRPRPESLPRP	-0.175
RRIRVRPPRLPRPRPRPQKTPRP	0.0603
RRIRERPPRLPRPRPRPALWPRP	0.241
RRIRVRPPRLPRPRPRPVSQPRP	0.051
RRIRERPPRLPRPRPRPSAIPRP	-0.115
RRIRKRPPRLPRPRPRPESQPRP	0.967
RRIRWRPPRLPRPRPRPHQIPRP	-0.154
RRIRLRPPRLPRPRPRPCTLPRP	-0.328
RRIRQRPPRLPRPRPRPLHNPRP	0.00263
RRIRQRPPRLPRPRPRPTGDPRP	0.349
RRIRSRPPRLPRPRPRPQSIPRP	-0.263
RRIRTRPPRLPRPRPRPRKMPRP	-0.107
RRIRKRPPRLPRPRPRPFIFPRP	0.085
